Laboratory results reported in article PMC5173320.

Target: GFP-FLN90 (short 90 kDa isoform of Drosophila filamin/cheerio with an N terminus EGFP tag) (Drosophila)
Assay: proximity ligation; in situ PLA (Duolink) in HEK293T cells co-expressing V5-dPak with GFP-FLN90 or GFP alone; fixed with 4% paraformaldehyde about 40 hr after transfection; mouse anti-V5 and rabbit anti-GFP; GFP+ cells scored as PLA+ if they had more than three puncta

Sequence of GFP-FLN90 (short 90 kDa isoform of Drosophila filamin/cheerio with an N terminus EGFP tag) (Drosophila) (Q9VEN1 whole entry, canonical isoform): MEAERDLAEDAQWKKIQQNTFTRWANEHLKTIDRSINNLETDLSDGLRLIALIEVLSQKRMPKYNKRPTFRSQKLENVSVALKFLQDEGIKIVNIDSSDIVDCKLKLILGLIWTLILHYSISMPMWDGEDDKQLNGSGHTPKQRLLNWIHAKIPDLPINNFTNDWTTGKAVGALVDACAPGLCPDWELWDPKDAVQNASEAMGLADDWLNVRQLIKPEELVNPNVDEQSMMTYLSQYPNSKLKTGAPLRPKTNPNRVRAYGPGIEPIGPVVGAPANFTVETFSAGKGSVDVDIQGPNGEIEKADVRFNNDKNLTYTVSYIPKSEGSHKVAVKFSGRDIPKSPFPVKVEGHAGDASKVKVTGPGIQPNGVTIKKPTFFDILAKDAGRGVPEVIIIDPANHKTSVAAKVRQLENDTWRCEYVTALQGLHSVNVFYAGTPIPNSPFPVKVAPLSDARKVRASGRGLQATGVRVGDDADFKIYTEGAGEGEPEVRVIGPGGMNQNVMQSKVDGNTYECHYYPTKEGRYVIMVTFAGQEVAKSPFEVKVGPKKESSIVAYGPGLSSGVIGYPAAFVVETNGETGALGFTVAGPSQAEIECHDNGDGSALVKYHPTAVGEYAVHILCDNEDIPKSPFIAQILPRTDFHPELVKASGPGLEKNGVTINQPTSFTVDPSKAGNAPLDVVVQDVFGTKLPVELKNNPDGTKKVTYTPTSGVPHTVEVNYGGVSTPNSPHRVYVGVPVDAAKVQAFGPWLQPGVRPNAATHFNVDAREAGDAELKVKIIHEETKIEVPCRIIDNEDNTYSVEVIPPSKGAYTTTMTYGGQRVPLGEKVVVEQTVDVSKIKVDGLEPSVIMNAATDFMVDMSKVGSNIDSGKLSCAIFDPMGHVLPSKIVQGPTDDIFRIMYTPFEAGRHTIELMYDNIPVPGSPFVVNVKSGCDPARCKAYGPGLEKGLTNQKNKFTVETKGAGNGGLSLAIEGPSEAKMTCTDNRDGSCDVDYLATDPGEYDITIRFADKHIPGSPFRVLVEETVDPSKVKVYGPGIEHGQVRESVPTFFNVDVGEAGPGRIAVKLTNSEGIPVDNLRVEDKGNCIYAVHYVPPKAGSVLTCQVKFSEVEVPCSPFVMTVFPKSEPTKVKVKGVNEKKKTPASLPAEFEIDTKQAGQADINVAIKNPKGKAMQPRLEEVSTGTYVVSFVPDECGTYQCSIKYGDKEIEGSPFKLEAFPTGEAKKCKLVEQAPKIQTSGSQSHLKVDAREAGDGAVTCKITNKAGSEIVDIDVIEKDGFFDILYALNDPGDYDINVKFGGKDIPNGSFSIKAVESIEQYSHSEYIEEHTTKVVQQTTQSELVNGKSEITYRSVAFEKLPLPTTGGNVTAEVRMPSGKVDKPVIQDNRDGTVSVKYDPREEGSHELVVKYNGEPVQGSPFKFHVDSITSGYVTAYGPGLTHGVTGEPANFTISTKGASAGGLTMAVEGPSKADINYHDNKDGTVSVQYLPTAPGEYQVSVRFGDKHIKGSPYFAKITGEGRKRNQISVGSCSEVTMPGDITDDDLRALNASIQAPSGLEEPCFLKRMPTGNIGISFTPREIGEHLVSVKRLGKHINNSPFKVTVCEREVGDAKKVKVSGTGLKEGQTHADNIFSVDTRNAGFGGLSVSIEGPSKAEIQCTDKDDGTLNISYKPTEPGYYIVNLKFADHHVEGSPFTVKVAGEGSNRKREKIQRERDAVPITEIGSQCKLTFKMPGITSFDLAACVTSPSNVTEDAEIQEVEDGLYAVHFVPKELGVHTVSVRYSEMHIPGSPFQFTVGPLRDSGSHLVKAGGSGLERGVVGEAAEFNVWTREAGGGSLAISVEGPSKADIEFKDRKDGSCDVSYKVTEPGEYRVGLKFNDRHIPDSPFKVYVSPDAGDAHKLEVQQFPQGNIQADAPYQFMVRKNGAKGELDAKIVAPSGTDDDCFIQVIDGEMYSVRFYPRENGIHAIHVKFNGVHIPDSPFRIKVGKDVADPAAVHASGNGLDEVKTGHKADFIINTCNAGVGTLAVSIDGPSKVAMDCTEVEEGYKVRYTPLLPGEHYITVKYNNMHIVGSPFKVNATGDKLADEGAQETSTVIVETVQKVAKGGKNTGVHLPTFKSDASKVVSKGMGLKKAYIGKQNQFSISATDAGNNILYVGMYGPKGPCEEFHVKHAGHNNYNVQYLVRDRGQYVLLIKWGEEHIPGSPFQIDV

- PLA-positive cells among GFP+ cells (of 973 GFP+ cells): 484
Substance: V5-dPak (Drosophila p21-activated kinase Pak with a V5 tag) (from UniProt Q9VI13 1-704) (enzyme)
